Test results: the supplement of paper PMC12764529
± gives the half width of the 95% confidence interval.

Legend:
[1] = folding stability dG unfold from trypsin proteolysis; higher = more stable
Summary of the method: (§1)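 Designed mini-proteins (under 80 residues, no cysteine) in a PA-tagged cDNA display construct were digested with trypsin and chymotrypsin. Each protease was used at 11 concentrations (threefold dilutions) plus a no-protease condition, followed by sequencing. K50 was inferred by Bayesian fitting of sequencing counts, and unfolding free energy was derived against a sequence-predicted unfolded-state K50 and a shared folded-state K50, per protease or combined. Only designs with AlphaFold2 dimer inter-PAE above 15 were kept.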

[2] = folding stability dG unfold from chymotrypsin proteolysis; higher = more stable
Summary of the method: as §1

[3] = folding stability dG unfold (combined trypsin and chymotrypsin); higher = more stable
Summary of the method: as §1

Row | Sequence | folding stability dG unfold [1] [kcal/mol] | folding stability dG unfold [2] [kcal/mol] | folding stability dG unfold [3] [kcal/mol]
1 | SMKKNYKIKIEIIDIKIYNKNIPKNKPKYITIKAKITIYYKNKPYKYTIEIKYKIYNGKIYIIGSKIKPESA [r9_270_TrMRF] | 3.36 ± 0.1 | 3.761 ± 0.025 | 3.66 ± 0.11
2 | SMKKPIDLIKKLGYTLTSVTKLPNGTTLITFEHPDSTVTVTVNPDGNIKITTTNPKNGTTTTTTIPVNKLSA [r9_2_JUSTAS] | 1.95 ± 0.08 | 2.31 ± 0.099 | 2.08 ± 0.15
3 | SMKMSPEEKLKELAKELAEKLEEETGKKVKVRVTVEYNGKTFEIEIEEGETIEDIRNKFPGLKIKVEIEPSA [r9_513_TrROS_Hall] | 1.34 ± 0.17 | 0.00992 ± 0.22 | 1.08 ± 0.41
4 | SMKPGAEITIEPFPDGMYKITLPDGRERIFSPNGIAIEITPNKIKIEMFHPGKPIMEMEVEIPPPDPNDPSA [r9_901_TrROS] | 0.912 ± 0.19 | 0.771 ± 0.16 | 0.987 ± 0.43
5 | SMKPGDTVIVKIEIEKKVDGKTVKKTIEKEIKIKPGETVEIELKGLPKGAKVRVEIFNADGKLIEEKELPSA [r9_478_TrROS_Hall] | 2.23 ± 0.075 | 1.46 ± 0.042 | 1.8 ± 0.08
6 | SMKPGEKLEIEVEIKVEEEDEEKRKKALEEAEEKLRELFEKLGLKDIKKVEVVEVEKLPDGTVKVKIRIDSA [r9_754_TrROS_Hall] | 2.39 ± 0.18 | 1.32 ± 0.11 | 1.71 ± 0.24
7 | SMKPGELVLVTETETRTFTVTPEDLPPGWKVKEVKVTVTRVALFRVTPDGRVELVEEVTSVEIEVTLEPESA [r9_747_TrROS_Hall] | 4.39 ± 0.42 | 4.54 ± 0.1 | 4.52 ± 0.22
8 | SMKPGETVRVTFKTKDGSKIEIEFKNGKPVRITVYNKNGEKVKEIEVTLDELKELAEKLGIEEIVEVEKVSA [r9_1107_TrROS_Hall] | 2.76 ± 0.19 | 3.44 ± 0.077 | 3.26 ± 0.35
9 | SMKTITIPADTLSPEEIEALLKELGFDPEKIKISTEGDKLVVTVPDMIVFLTPPPPVPTVPPTNPERLAALS [r1_57_JUSTAS] | 0.643 ± 0.036 | -0.141 ± 0.36 | 0.31 ± 0.15
10 | SMKTKTVTLDLSPEDPEAARAAVEAAIAEARAADPDTEVTVTVTISPEHPELLAEIEALAAERGVSLVLGSA [r9_1202_JUSTAS] | 2.74 ± 0.058 | 2.84 ± 0.06 | 2.81 ± 0.097
11 | SMKTVTLNFPSLSEEEVRALAEELEATGRYRVEKIDSSTPNIKVTVLEEPPEPRPPPPPALVRDADARAASA [r9_830_JUSTAS] | 1.08 ± 0.088 | 1.83 ± 0.12 | 1.4 ± 0.12
12 | SMKVERERRTIERTLPDGRKVKVEIDLFRPEDGKPWALIKITVTDENGVPTEREILAPAELAEKVIEELFSA [r9_189_TrMRF] | 2.34 ± 0.055 | 1.78 ± 0.039 | 2.08 ± 0.069
13 | SMKVIIIERPDESGVPVVIVLPEEEALELYRKLFNVPMSVEEFAEKLKELNPNVKVEVVPLEEVSEEVLLSA [r9_1085_JUSTAS] | 2.23 ± 0.086 | 2.28 ± 0.058 | 2.35 ± 0.18
14 | SMKVKPGEKIKVTVLALFYDKETKKLYLVKAEVEATVELDEDGNLTVKVEVKKVEVVEEMPLDELKELLKSA [r9_423_TrROS_Hall] | 2.29 ± 0.14 | 3.4 ± 0.067 | 2.97 ± 0.18
15 | SMKVVKLYTDPEGRVVIEITLPKPDGTPVSEEEAKAIADEIAAELKPKYPNATFEITYDPKTGVVTITIGSA [r9_485_JUSTAS] | 3.49 ± 0.13 | 2.51 ± 0.053 | 2.97 ± 0.1
16 | SMLKPGDIVKLPNGPIYVVKKLTISYDPSTSPPKLELELVPLGEPKPVLKEYTLPDGSTKTEIGYYWTGPSA [r9_914_TrMRF] | 0.922 ± 0.031 | 0.995 ± 0.11 | 0.98 ± 0.12
17 | SMLNPDDPSVPERLVLVIPVPEEAVENGDFEVVRAKVEEAAEELEPLGWRVVSVEFDTETKEARLVLERPSA [r9_75_TrMRF] | 3.76 ± 0.07 | 3.506 ± 0.021 | 3.617 ± 0.032
18 | SMLPLLPPRRLLIEVVFPLPEDATPEQLELAERAAEALADVLEALGFKDVRVLVEPTDPGDVLILAEVEASA [r9_865_TrMRF] | 1.49 ± 0.023 | 1.97 ± 0.034 | 1.82 ± 0.074

Row | Sequence | folding stability dG unfold [1] [kcal/mol] | folding stability dG unfold [2] [kcal/mol] | folding stability dG unfold [3] [kcal/mol]
19 | SMLTITDENGNTITLPAAGEPVTLTVEIEVDGYTVTVEITFDADTKKITIKVEVTNPNGEKQTFTFTFDLSA [r9_1073_TrROS_Hall] | 2.92 ± 0.12 | 4.23 ± 0.083 | 3.84 ± 0.16
20 | SMLVSVTFPLTLEPEEGDHTVRIYATAPDGSSLGEVTAPVKAVGDKVEFEVTATFPLPEGAVIERIETEPSA [r9_292_TrMRF] | 0.681 ± 0.025 | 0.857 ± 0.12 | 0.869 ± 0.084
21 | SMPAEMSPEEVREAVRALVEEALAANPGEPVTVPIEEIRAALPGYSPEVLREVLGLTEEEIAAGPVTLRLSA [r9_525_JUSTAS] | 0.885 ± 0.042 | -0.45 ± 0.35 | 0.483 ± 0.12
22 | SMPEIKVEKKNGKLTITVPKGAKIKIKIEVNGKKIEKEVEVKEGETVTITIELPPNMPKDVKIKEIEIEKSA [r9_1152_TrROS_Hall] | 1.61 ± 0.066 | 1.93 ± 0.13 | 1.88 ± 0.13
23 | SMPEKYIVRVEVRGRDGKTVTFEAEATVDSSDFDDFIEAILEAPGLEDADEVRFYVYRLGTGRPEEFTVPSA [r9_97_TrMRF] | 2.01 ± 0.069 | 3.03 ± 0.06 | 2.7 ± 0.069
24 | SMPEVRVEEVTIELEFTLPDGRTVRVEIRLTRVTLPDGRVFTRLEIKVEVPEEDEEARKLLKELLEELLSSA [r9_908_TrROS_Hall] | 4.52 ± 0.14 | 4.75 ± 0.13 | 4.69 ± 0.12
25 | SMPGVRVRLYTVRVKTPEGGELTAPIAVPAELFTEEEIRELVREAFPDAEDVEIEPAVLELPPAPGLLTASA [r9_841_TrMRF] | 1.39 ± 0.034 | 1.31 ± 0.1 | 1.43 ± 0.079
26 | SMPLIIIAKKNKDGTGTILIKKGDKVIEIEFEKNIKPEELKKKAIETALTLKKKTEELGIPIEIKEIIFESA [r9_751_TrMRF] | 1.77 ± 0.082 | 2.23 ± 0.077 | 2.1 ± 0.091
27 | SMPLLVKVDTPEQREKLLKVLEEIEKETDIKIELVSEHPDGKYEFLIEAPLEEAVKIAKKLKEAGNVEIVSA [r9_472_TrMRF] | 3.89 ± 0.19 | 3.48 ± 0.12 | 3.7 ± 0.1
28 | SMPPEDPGELTLVVPDTRNVTVTLPVPVPPEARVLVTFSDGRRVEAPAGTELTFTIPPGRPYVIRVEVYASA [r9_79_TrMRF] | 1.2 ± 0.027 | 1.86 ± 0.085 | 1.6 ± 0.076
29 | SMPPGERYRMTMKFPDGKKITLEMNPGGWWRIKVENKNGKPQHQQPIPPDNPQELAENFGIDKVTDVEPVSA [r9_1107_TrROS] | 2.01 ± 0.095 | 2.02 ± 0.2 | 2.05 ± 0.17
30 | SMPPLGEETTLLETIELPEKLTVEIRRVTLPNGVPLIEVSKTDPSGNTTPIFRAPGNDPAALAAARAALASA [r9_1069_JUSTAS] | 0.438 ± 0.078 | -0.0163 ± 0.47 | 0.262 ± 0.21
31 | SMPTLKITIEKKLPNGEKKKIEIEISLEELLKEARKKKGLESEEEAREALAKELAEKLKEEGYKVKIEPVSA [r9_868_TrROS_Hall] | 0.855 ± 0.17 | 0.209 ± 0.42 | 0.525 ± 0.32
32 | SMPVGVEELAERLAEEIEKELSEKTGVPVKVEKITVEEDPATGTVTVTITLYLPDGKKIREESLTVPVLESA [r9_60_JUSTAS] | 1.59 ± 0.051 | 1.52 ± 0.037 | 1.53 ± 0.065
33 | SMSFEAELTLPDQPVTVPVTLDPATGTATVTVTTTHPDRDETTTTTVTVSDPSELLALLRELPPGATLRLSA [r9_713_JUSTAS] | 0.307 ± 0.079 | 0.974 ± 0.059 | 0.771 ± 0.068
34 | SMSIELDAESIEEIADFLKKAIEDGNPDAKIRIELYPLGGEREEREYDSIDEIIAELKKGPARIRIELEPSA [r9_589_TrMRF] | 1.36 ± 0.037 | 2.29 ± 0.11 | 1.88 ± 0.11
35 | SMSLVVSEEVDPATGTTTVTTTFPSPGVTVTATASAAGDSVTTTVTTTSPAPSAPTTTTTTTPVAPPGTDAS [r1_404_JUSTAS] | 1.55 ± 0.067 | -0.3 ± 0.077 | 0.806 ± 0.087
36 | SMSVSTSTEKLPTDLYITEKEIKIEPVDPTKNVYRVTVKTTIVDKNGNVVKEEEKEEIIPLSELEKRIKSSA [r9_234_JUSTAS] | 1.2 ± 0.085 | 1.61 ± 0.1 | 1.54 ± 0.28
